In the supplement of paper PMC12042874:
± gives the uncertainty stated by the source.

Experiment: amyloid nucleation score (Sup35N fusion, yeast selection) (log enrichment); library NNK2; higher = more nucleation; inactive = no reads after selection
How it was run: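 After 24 hours of induction with 100 μM copper sulfate, psi-negative yeast expressing peptides of 20 random codons fused to Sup35N were grown for 7 days at 30°C on medium lacking adenine and uracil. Input and output plasmid inserts were sequenced with Illumina, and sequences with under 100 input reads were discarded. Scores for nucleation are the DiMSum log enrichment of output over input reads, centred on the mode score of non-aggregating sequences.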

| Substance | amyloid nucleation score |
| --- | --- |
| HWGLNTWPYSDFGVTLLRGH | -0.477 ± 0.76 |
| HWRGFYS | -0.388 ± 1.1 |
| HYRGSENGVEPSFLYGVSLL | 0.079 ± 0.49 |
| HYRWMSHADIMVFHNLCRYN | inactive |
| HYRYEVDYLSELCIPDGMPM | -0.197 ± 0.24 |
| HYSFRSIAGLQAVCGDNCMD | 0.427 ± 0.52 |
| HYYPLVAIR | 0.389 ± 0.49 |
| HYYSIDEASRYKMDLNLSLL | 2.91 ± 0.099 |
| IACLNKTFLFSCVNIYGLMT | 5.736 ± 0.037 |
| IALANVGLED | -0.023 ± 0.33 |
| IANVWLLQFRKAFEGGLDAG | 7.08 ± 0.079 |
| IASISERLYCFAGPTIRCNR | 0.338 ± 0.43 |
| ICAGSGFRKGRINPELRVHW | -1.24 ± 0.75 |
| ICCWEMCLGSFFR | 0.287 ± 0.65 |
| ICEVRIFKLNMVVCSLYYMV | -1.12 ± 0.76 |
| ICGPLTRRVIDCGAYTKY | -0.19 ± 0.26 |
| ICVYSTRTDKMSCRPF | 0.856 ± 0.6 |
| IDDDIFVMCCIEKHVLVCEF | 3.26 ± 0.047 |
| IDFQVVWSIFLENSKKHSTR | 0.213 ± 0.8 |
| IDHINF | -0.524 ± 0.64 |
| IDNLFWPRLSGPDFVI | -1.7 ± 1.1 |
| IDRVVSTRSSGFVCGEAFCG | -0.365 ± 0.63 |
| IDYLDTCFAVCFVGYTVCPT | 0.111 ± 0.5 |
| IDYQSGMPWVSMRMILKQ | 0.158 ± 0.46 |
| IEDSEREMACINPGFSFVVV | -1.83 ± 1.1 |

| Substance | amyloid nucleation score |
| --- | --- |
| IEGFRNDFLYVKISVGGAVV | inactive |
| IEHIRFTSSSAVVRRCGNC | 6.11 ± 0.066 |
| IEYWRSGVMELGHVVSYRDI | 0.102 ± 0.77 |
| IFCNTLCQIGFRRNVKASGN | -0.104 ± 0.5 |
| IFFLMNPR | 2.16 ± 0.068 |
| IFGFGMFKWKTFLTLSVFV | -0.223 ± 0.76 |
| IFGSWSSIMCLTKFKCSLGG | 2.8 ± 0.081 |
| IFHRLKDLT | -1.24 ± 0.48 |
| IFHYAFC | 10.09 ± 0.061 |
| IFLEMKDHIIRATFNRLRFC | inactive |
| IFLIK | -0.249 ± 1.1 |
| IFMNPICFWSNRNFLVWSNN | 4.5 ± 0.059 |
| IFMRNRV | -0.524 ± 0.64 |
| IFNCLFDNGKDVYFGILIDF | 2.85 ± 0.081 |
| IFPLPDLGAYSC | 0.47 ± 0.65 |
| IFSIKPIYLDLNQRVNSIAE | inactive |
| IFSKVRLFFRRGMNFVMGEV | -1.64 ± 0.77 |
| IFSQGHEYKRDELKNV | inactive |
| IFSRIDTQCGMMSISQQ | -0.364 ± 0.24 |
| IFSTHVEFRWQLILGL | -0.426 ± 0.25 |
| IFVFSWRIRMWLLKSLTCG | -0.904 ± 0.78 |
| IFYIVGYFAHLMMWNTRRDG | inactive |
| IFYNIVE | -1.31 ± 0.78 |
| IFYRYFSVFNCPAICRQYRK | 6.382 ± 0.054 |
| IFYWLIHHRLMYDFFCRVLT | -0.995 ± 0.76 |

| Substance | amyloid nucleation score |
| --- | --- |
| IFYYIDCCHITARYFQREGM | 7.71 ± 0.081 |
| IGAQPRDGYN | -0.223 ± 0.49 |
| IGGGTLYWGVDWVMY | 2.96 ± 0.12 |
| IGHLPMMVLT | 1.42 ± 0.36 |
| IGLKVSSFNDKVLSGA | -0.285 ± 0.63 |
| IGLTALDFMSAFGVHLYGCG | 0.215 ± 0.76 |
| IGLVVFSAL | 2.56 ± 0.11 |
| IGRMGIQKWS | 0.698 ± 0.47 |
| IGRRLVDFWDVGPFCSHVII | -1.48 ± 1.1 |
| IGTYWYVKLWRYSYVYPYLD | 0.665 ± 0.57 |
| IGVIKGFYWHK | -0.343 ± 1.1 |
| IGVWMGCYTSLHCSIKCLEI | 6.36 ± 0.086 |
| IGWTFIHVPCSAQRFVAIVS | 0.827 ± 0.51 |
| IHESSSF | -0.47 ± 1.1 |
| IHFWIMIDHG | -0.771 ± 0.35 |
| IHGFNLSIRKMQKDGSDGQH | 0.635 ± 0.65 |
| IHRILCHGVRASMLGGSVAL | 0.067 ± 0.79 |
| IHVICCAGRVARCFVSEIMG | 0.674 ± 0.48 |
| IIADCTVARARHCLE | 0.276 ± 1 |
| IIGFLFMDFLLSCRFQFCT | -1.32 ± 0.45 |
| IIKLGESNPKSPFGTLYYGF | -0.213 ± 1.1 |
| IILAKLSLLTICCSIDWISR | 3.07 ± 0.11 |
| IILRCNKDFEALACIVVSRR | inactive |
| IIRITESASRCNTDQLFLLW | inactive |
| IIRYTSILWKINGSGVNFWF | -0.67 ± 0.55 |

| Substance | amyloid nucleation score |
| --- | --- |
| IISFLLFGEGGFFLVLY | inactive |
| IISSYSATEARTMFIKLHCL | -0.606 ± 0.54 |
| IIVCVSGIYLSMSQ | 6.007 ± 0.035 |
| IIVIVWQGWSNGVGLHSCGA | 3.15 ± 0.063 |
| IIWVHSTIPSRVNR | -0.183 ± 1 |
| IKDKSHLRRIVLVTEYTRRD | 0.179 ± 0.34 |
| IKNVWFQFSCGGPGSLRVGS | 0.318 ± 0.32 |
| IKSVFMCYWGLDAVGVTAER | 8.785 ± 0.047 |
| IKTGSGVARVGYFLC | 0.42 ± 0.47 |
| ILAGSAFCLLCCVKAGWSDE | 6.41 ± 0.086 |
| ILDCLRVRESDHVSGRNRVC | 0.509 ± 0.37 |
| ILHPGSNLPRCRDMCILKGW | -0.226 ± 0.54 |
| ILINCSRWEGRTSCVTLAQQ | 2.27 ± 0.12 |
| ILLFELNAPFVEYSNAFG | 3 ± 0.045 |
| ILLNTSYVYLTDSMEFTVGL | 2.15 ± 0.14 |
| ILMMNLNAADRIVNMHMSIL | inactive |
| ILRDVVDLQMHNTWRNRGDQ | 3.66 ± 0.063 |
| ILRLIL | 0.531 ± 0.51 |
| ILSCWSCRGRINTY | 1.9 ± 0.14 |
| ILTGILSLVAYASSPGAPCG | 2.45 ± 0.22 |
| ILTTCMNAKKLNLFGYGL | -0.291 ± 0.63 |
| ILWKMTFKAPIAKEFPAKWL | 0.065 ± 0.56 |
| ILWNLNY | -0.596 ± 0.4 |
| ILYFCRVLITVCMIVDMWGE | 0.333 ± 0.64 |
| ILYGLSVQFLGLFCSYCKSS | 6.013 ± 0.058 |

| Substance | amyloid nucleation score |
| --- | --- |
| ILYSSVVSLSCTLAKGNDYT | 1.77 ± 0.4 |
| ILYVCDTRELSGWGGRCYAW | 1.73 ± 0.56 |
| IMCCTRLLNSFSAITIVHIA | -0.03 ± 0.43 |
| IMELSFLSWVLRSKMDFHAE | 5.34 ± 0.066 |
| IMGKI | 0.163 ± 0.79 |
| IMIMTGWS | -0.984 ± 0.44 |
| IMLAVYPIIEGFIVDNMHRI | -1.25 ± 1.1 |
| IMNRSSSG | 1.03 ± 0.36 |
| IMSSISRSNCVSLVV | inactive |
| IMYLVENMCHDKKFYCSVNL | 4.34 ± 0.087 |
| INDVLFTTRRGHTIS | 2.75 ± 0.094 |
| INEFCATLQERRMCYLRMKL | 0.921 ± 0.74 |
| INGCNQCALP | -0.408 ± 1 |
| INIHIFGWLIGLRGCM | -0.504 ± 1.1 |
| INMCNP | 2.89 ± 0.072 |
| INNDTVMVVHRRIHLLYYLM | inactive |
| INQHEPFPPGVVLKVHKTL | -0.021 ± 0.34 |
| INSQVDGFSEWPGVVQSKTL | -0.157 ± 0.38 |
| INVVRTNIKYTMTFCIEGTN | 7.306 ± 0.032 |
| IPAKGRNSHSVSCFF | -1.07 ± 0.63 |
| IPDHFRTSSAYRLGDRHGG | 0.103 ± 0.43 |
| IPIYFSHMNRHWIKCYVLVC | -0.913 ± 0.36 |
| IPLLCKFCSRGSRAKIYLMD | 1.75 ± 0.095 |
| IPPNGPVYCRYHNRQVCRAG | 0.203 ± 0.34 |
| IPSWCFVIYSRNGYGFLHCT | inactive |

| Substance | amyloid nucleation score |
| --- | --- |
| IPTFSSLCLMLRTEGPRVDI | -1.05 ± 1.1 |
| IQACYGFQSNDVPLISCT | -1.78 ± 0.49 |
| IQHTVMWNALLLALAVSRLR | 0.667 ± 0.21 |
| IQQFVKVFVGDLNLTVDRNM | 7.554 ± 0.06 |
| IQSDLNNLLMHVRVFMCSAV | 4.05 ± 0.065 |
| IRCCTYFAALSILLAPIKAG | 0.322 ± 0.27 |
| IRCVNIKSLP | -1.24 ± 1.1 |
| IRLARISWRSRHYSTHSGVS | -0.076 ± 0.31 |
| IRLDTKDGCRYN | inactive |
| IRNNPCFQSGDVGY | -0.088 ± 1.1 |
| IRPSWLKENLRMVYWYKDYP | 2.53 ± 0.077 |
| IRRWFRLNNGRM | -0.113 ± 0.79 |
| IRVYRGGLFNSLKKENVGAC | inactive |
| IRWAFWSRYGSWAKLSLRIV | -0.995 ± 0.56 |
| IRWFTEKISDKHLTGCRGLT | 0.345 ± 0.45 |
| ISDATLGFGLIHVGMDVWGC | 5.76 ± 0.061 |
| ISDHTTNKDQRFSYS | -0.455 ± 1.1 |
| ISDMS | -0.416 ± 0.28 |
| ISEDIIWC | 1.24 ± 0.25 |
| ISEIQDLLGSALTH | 2.09 ± 0.079 |
| ISFRFLAFCFFYDKVSLEQK | inactive |
| ISFSSTSIHFGD | 1.04 ± 0.11 |
| ISGVSDGQMGFWRNEMGQGS | 0.28 ± 0.39 |
| ISIAGCFNTKILWMFEQ | 6.32 ± 0.087 |
| ISKEMGNYNFGLSKYAKR | -1.06 ± 0.3 |

| Substance | amyloid nucleation score |
| --- | --- |
| ISPLHNSLKALRFGPPYSTL | -0.377 ± 0.4 |
| ISPMWREWTWSHNWCSFPTS | inactive |
| ISRQDRVQWWSYSSTRLA | 4.94 ± 0.077 |
| ISSDRIYICL | 5.996 ± 0.059 |
| ISSKITRLSPGGLVS | inactive |
| ISTFSRVHLSKVYLRDSTIV | -1.92 ± 1.1 |
| ISTINNGYVFRLYLGSCILD | 6.02 ± 0.081 |
| ISTSPMLACVASVRRSLIRT | 0.098 ± 0.74 |
| ISTYSLCLLSWWH | 9.469 ± 0.054 |
| ISVKDCLYPQLL | -0.492 ± 1 |
| ISVQATGASESETIPIQTGY | 2.13 ± 0.11 |
| ITFYGTF | inactive |
| ITHMLLTGIPTQLSRV | -0.621 ± 0.74 |
| ITLFDHRSSKTTLKDFAENT | -0.137 ± 1.1 |
| ITPVRTVRMLSRMFNMLSQL | 4.83 ± 0.056 |
| ITSLRSLRYFHVEFVSRLWL | 0.554 ± 0.81 |
| ITSSEVGHWYRVTEKCHIRM | 1.2 ± 0.3 |
| ITTFLCSGFCIINAVRNFLS | 2.77 ± 0.12 |
| ITVYLRTRFLGFGFEYE | -0.536 ± 1 |
| ITYNTS | 0.936 ± 0.44 |
